According to US20240307507A1, “LACTOFERRIN COMPOSITIONS AND METHODS OF USE” (LACTEA THERAPEUTICS LLC, priority 2021, published 2024):

What was measured:
[1] = ELISA antibody binding of Lactoferrin; settings: same amount of protein by weight loaded
Procedure: Lactoferrin percentage can be assessed by an enzyme-linked immunosorbent assay (ELISA). In some instances, an ELISA can distinguish the percentage of Lactoferrin in a native protein conformation, such as by using an antibody that specifically binds the native protein conformation of Lactoferrin.
Lactoferrin purity was also assessed by ELISA.

[2] = test system: ECM of primary buccal cells; assay: Lactoferrin ECM association by immunofluorescence, primary buccal cells; assay type: cell-based; settings: 100 ug/mL, 1 hr, 37 C
Procedure: Primary buccal cells were next cultured according to a standard protocol (e.g., see Russo et al. Cytotechnology. 2016 October; 68(5): 2105-2114; herein incorporated by reference for all purposes). […] Immunofluorescence imaging was performed as previously described.

SARS-COV-2 = SARS-COV-2 Cytopathic Effect (CPE) reduction assay in Vero E6 cells; assay type: cell-based; settings: Vero E6 cells, neutral red, three days post-infection
[3] = Differential Scanning Calorimetry (DSC) unfolding of apolactoferrin and hololactoferrin forms; assay type: physicochemical
Procedure: The assay was also performed with heat-treated API-E2 Lactoferrin. API-E2 Lactoferrin was heated across a range of 50-100° C.

[4] = DSC iron binding capability with excess iron chloride; settings: iron chloride in 1000× molar excess
Procedure: The DSC assay was further used to assess Lactoferrin bioactivity, specifically the iron binding capability of the API-E2 Lactoferrin. Iron chloride (FeC13) was added in 1000× molar excess to API-E2 Lactoferrin. In the presence of excess iron, the API-E2 lactoferrin will bind the iron to its open iron binding site.

[5] = test system: Salivary bacteria (including Lactobacillus, Lactococcus, and Streptococcus mutans); assay: Salivary bacteria acid production by pH testing; assay type: cell-based; settings: with sucrose, start pH 7, entire 6 hour period
Procedure: Salivary bacteria (including Lactobacillus, Lactococcus, and Streptococcus mutans) produce acid during growth. This acidification is strongly associated with tooth decay, particularly when it results in pH below 5.5, which is a clinically relevant threshold. A slurry of these bacteria were treated with sucrose to stimulate growth, as well as varying concentrations of API-E2 lactoferrin. Upon the addition of sucrose and API-E2 lactoferrin, the pH was adjusted to 7 through a titration and the change in pH was subsequently monitored over the next 6 hours.

E. coli = assay: Zone of inhibition test; assay type: cell-based
Procedure: A zone of inhibition test was performed to assess bioactivity of API-E2 Lactoferrin. A plate with E. coli was cultured with 100 μg/mL, 10 μg/mL, 1 μg/mL, and 0.1 μg/mL API-E2 Lactoferrin added to paper circles and allowed to diffuse out.

lactoperoxidase (LPO) = assay: Enzymatic colour assay for lactoperoxidase (LPO) activity; assay type: biochemical; settings: colorimetric peroxidase substrate turning blue
Text: An enzymatic assay for lactoperoxidase (LPO) activity was developed utilizing a molecule which in the presence of peroxidase activity turns a blue color.

B1: API-E2: purified bovine lactoferrin from raw, untreated milk produced according to Example 1 (protein)
chain: APRKNVRWCTISQPEWFKCRRWQWRMKKLGAPSITCVRRAFALECIRAIAEKKADAVTLDGGMVFEAGRDPYKLRPVAAEIYGTKESPQTHYYAVAVVKKGSNFQLDQLQGRKSCHTGLGRSAGWIIPMGILRPYLSWTESLEPLQGAVAKFFSASCVPCIDRQAYPNLCQLCKGEGENQCACSSREPYFGYSGAFKCLQDGAGDVAFVKETTVFENLPEKADRDQYELLCLNNSRAPVDAFKECHLAQVPSHAVVARSVDGKEDLIWKLLSKAQEKFGKNKSRSFQLFGSPPGQRDLLFKDSALGFLRIPSKVDSALYLGSRYLTTLKNLRETAEEVKARYTRVVWCAVGPEEQKKCQQWSQQSGQNVTCATASTTDDCIVLVLKGEADALNLDGGYIYTAGKCGLVPVLAENRKSSKHSSLDCVLRPTEGYLAVAVVKKANEGLTWNSLKDKKSCHTAVDRTAGWNIPMGLIVNQTGSCAFDEFFSQSCAPGADPKSRLCALCAGDDQGLDKCVPNSKEKYYGYTGAFRCLAEDVGDVAFVKNDTVWENTNGESTADWAKNLNREDFRLLCLDGTRKPVTEAQSCHLAVAPNHAVVSRSDRAAHVKQVLLHQQALFGKNGKNCPDKFCLFKSETKNLLFNDNTECLAKLGGRPTYEEYLGTEYVTAIANLKKCSTSPLLEACAFLTR
increase in antibody binding relative to existing research standards [1]: 30%
ECM association of Lactoferrin [2]: strong binding along the ECM
EC50 (SARS-COV-2): 90 nM
Delta H, apolactoferrin peak ([3]; 10 mg/mL): 111.4 ± 2.2 kcal/mol
Delta H, hololactoferrin peak ([3]; 10 mg/mL): 151.2 ± 1.72 kcal/mol
% of Total, apolactoferrin ([3]; native sample without added iron): 91.26 +/− 1.39% ^
available Apolactoferrin shifted to the Hololactoferrin form [4]: 100%
pH maintained over testing period ([5]; 1 mg/mL): above 5.5
pH maintained over testing period ([5]; 10 mg/mL): above 5.5
zone of inhibition (E. coli; 0.1 μg/mL on paper circles): No zone of inhibition
zone of inhibition (E. coli; 1 μg/mL on paper circles): limited zone of inhibition
zone of inhibition (E. coli; 10 ug/mL on paper circles): complete inhibition
zone of inhibition (E. coli; 100 μg/mL on paper circles): complete inhibition
LPO enzymatic activity in the sample (lactoperoxidase (LPO)): neither detected

B2: heat-treated API-E2 Lactoferrin: API-E2 Lactoferrin heated across a range of 50-100° C. (protein, UniProt P24627 20-708, looked up)
Lactotransferrin: APRKNVRWCTISQPEWFKCRRWQWRMKKLGAPSITCVRRAFALECIRAIAEKKADAVTLDGGMVFEAGRDPYKLRPVAAEIYGTKESPQTHYYAVAVVKKGSNFQLDQLQGRKSCHTGLGRSAGWIIPMGILRPYLSWTESLEPLQGAVAKFFSASCVPCIDRQAYPNLCQLCKGEGENQCACSSREPYFGYSGAFKCLQDGAGDVAFVKETTVFENLPEKADRDQYELLCLNNSRAPVDAFKECHLAQVPSHAVVARSVDGKEDLIWKLLSKAQEKFGKNKSRSFQLFGSPPGQRDLLFKDSALGFLRIPSKVDSALYLGSRYLTTLKNLRETAEEVKARYTRVVWCAVGPEEQKKCQQWSQQSGQNVTCATASTTDDCIVLVLKGEADALNLDGGYIYTAGKCGLVPVLAENRKSSKHSSLDCVLRPTEGYLAVAVVKKANEGLTWNSLKDKKSCHTAVDRTAGWNIPMGLIVNQTGSCAFDEFFSQSCAPGADPKSRLCALCAGDDQGLDKCVPNSKEKYYGYTGAFRCLAEDVGDVAFVKNDTVWENTNGESTADWAKNLNREDFRLLCLDGTRKPVTEAQSCHLAVAPNHAVVSRSDRAAHVKQVLLHQQALFGKNGKNCPDKFCLFKSETKNLLFNDNTECLAKLGGRPTYEEYLGTEYVTAIANLKKCSTSPLLEACAFLTR
modifications: heat-treated
DSC apolactoferrin and hololactoferrin peaks detected ([3]; same conditions as API-E2): loss in both detectable peaks

B3: Lactoferrin (“Reagent”): purchased laboratory reagent grade Lactoferrin [Sigma Bovine Colostrum Lactoferrin] (protein, UniProt P24627 20-708, looked up)
Lactotransferrin: APRKNVRWCTISQPEWFKCRRWQWRMKKLGAPSITCVRRAFALECIRAIAEKKADAVTLDGGMVFEAGRDPYKLRPVAAEIYGTKESPQTHYYAVAVVKKGSNFQLDQLQGRKSCHTGLGRSAGWIIPMGILRPYLSWTESLEPLQGAVAKFFSASCVPCIDRQAYPNLCQLCKGEGENQCACSSREPYFGYSGAFKCLQDGAGDVAFVKETTVFENLPEKADRDQYELLCLNNSRAPVDAFKECHLAQVPSHAVVARSVDGKEDLIWKLLSKAQEKFGKNKSRSFQLFGSPPGQRDLLFKDSALGFLRIPSKVDSALYLGSRYLTTLKNLRETAEEVKARYTRVVWCAVGPEEQKKCQQWSQQSGQNVTCATASTTDDCIVLVLKGEADALNLDGGYIYTAGKCGLVPVLAENRKSSKHSSLDCVLRPTEGYLAVAVVKKANEGLTWNSLKDKKSCHTAVDRTAGWNIPMGLIVNQTGSCAFDEFFSQSCAPGADPKSRLCALCAGDDQGLDKCVPNSKEKYYGYTGAFRCLAEDVGDVAFVKNDTVWENTNGESTADWAKNLNREDFRLLCLDGTRKPVTEAQSCHLAVAPNHAVVSRSDRAAHVKQVLLHQQALFGKNGKNCPDKFCLFKSETKNLLFNDNTECLAKLGGRPTYEEYLGTEYVTAIANLKKCSTSPLLEACAFLTR
ECM association of Lactoferrin [2]: only limited ECM association
EC50 (SARS-COV-2): 140 nM
estimated ratio of the apolactoferrin to hololactoferrin peak [3]: nearly equal
Tm, apolactoferrin peak ([3]; 10 mg/mL): 55 C
Tm, hololactoferrin peak ([3]; 10 mg/mL): 85 C
LPO enzymatic activity in the sample (lactoperoxidase (LPO)): does not result in a positive enzymatic reaction
